Residue numbers refer to the chain shown, from its start.
Legend:
PAN = target: T1, PAN (Methanocaldococcus jannaschii, UniProt Q58576); assay: NADH-coupled ATPase assay, Hill equation; format: biochemical; details: 50 mM Tris-HCl pH 7.5, 5 mM MgCl2; 100 nM PAN
T1 construct: recombinant from pRSETA, homohexamer
T1 sequence (Q58576 1-430): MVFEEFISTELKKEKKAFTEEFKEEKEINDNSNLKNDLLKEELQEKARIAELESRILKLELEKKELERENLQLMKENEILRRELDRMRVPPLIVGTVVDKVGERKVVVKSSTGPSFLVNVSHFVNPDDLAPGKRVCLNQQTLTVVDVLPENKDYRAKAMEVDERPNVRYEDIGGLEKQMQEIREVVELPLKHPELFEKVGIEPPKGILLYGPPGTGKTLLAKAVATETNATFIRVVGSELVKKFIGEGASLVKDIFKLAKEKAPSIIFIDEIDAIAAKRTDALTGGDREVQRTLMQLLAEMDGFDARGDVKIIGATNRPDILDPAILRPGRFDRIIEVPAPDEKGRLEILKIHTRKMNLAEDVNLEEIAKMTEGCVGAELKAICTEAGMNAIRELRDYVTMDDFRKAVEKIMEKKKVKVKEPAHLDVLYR
Excerpt: NADH-coupled ATPase assay, Hill equation on PAN | Vmax, KM and Hill coefficient (h) values were obtained by nonlinear regression analysis

archaeal 20S proteasome = archaeal 20S proteasome (UniProt P25156)
[1] = target: the molecule itself; assay: native gel or EMSA; native gel of the PAN mutants; conditions not given

Sequence of archaeal 20S proteasome (P25156 whole entry, chain 1 of 2): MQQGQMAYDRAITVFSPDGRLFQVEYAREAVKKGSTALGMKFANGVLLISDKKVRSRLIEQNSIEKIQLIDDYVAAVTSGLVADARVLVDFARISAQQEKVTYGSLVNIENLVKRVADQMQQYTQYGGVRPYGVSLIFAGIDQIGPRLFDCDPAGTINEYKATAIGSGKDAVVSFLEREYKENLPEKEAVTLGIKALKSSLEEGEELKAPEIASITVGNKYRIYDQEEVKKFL
Sequence of archaeal 20S proteasome (chain, as listed by the source, chain 2 of 2): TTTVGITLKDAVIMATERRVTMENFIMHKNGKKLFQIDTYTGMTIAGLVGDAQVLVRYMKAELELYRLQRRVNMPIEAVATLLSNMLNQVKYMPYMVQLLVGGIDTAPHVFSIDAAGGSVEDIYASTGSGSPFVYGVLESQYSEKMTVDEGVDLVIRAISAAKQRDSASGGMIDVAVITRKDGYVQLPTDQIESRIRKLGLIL

Nc1ncnc2c1ncn2[C@@H]1O[C@H](COP(=O)(O)OP(=O)(O)OP(=O)(O)O)[C@@H](O)[C@H]1O [ATP]
Km (PAN): 261 ± 8 µM

B1: PAN wild type (enzyme)
chain: T1 sequence (Q58576 1-430)
LFP peptide hydrolysis by the 20S (20 nM) with PAN (80 nM) and 10 μM ATPγS (gate opening) (archaeal 20S proteasome): 9 fold

B2: PAN-R328A (enzyme, UniProt Q58576 1-430, looked up)
chain: T1 sequence (Q58576 1-430) with R328A
notes: PAN, archaeal proteasomal ATPase; Vector pRSETA; source: expression vector in pRSETA made by site-directed mutagenesis
stoichiometry N [1]: 6

B3: PAN-R331A (enzyme, UniProt Q58576 1-430, looked up)
chain: T1 sequence (Q58576 1-430) with R331A
notes: as for B2
stoichiometry N [1]: 6

B4: PAN-R328/331A (enzyme, UniProt Q58576 1-430, looked up)
chain: T1 sequence (Q58576 1-430) with R328A, R331A
notes: PAN, archaeal proteasomal ATPase; Vector pRSETA; also called double mutant; double-arginine mutant; source: expression vector in pRSETA made by site-directed mutagenesis
stoichiometry N [1]: 6
